These results are taken from US20090148434A1 (published 2009).

The target in one experiment is T1, human serum albumin (human, UniProt P02768 25-609).
T1 construct: also called HSA
Briefly: not stated; IC50/Kd, called Kd in paragraph 434.

In the next experiment the target is T2, human p55 TNF receptor (human, UniProt P19438 30-211, limits assumed).
T2 construct: also called TNF Receptor 1; TNFR1
T2 sequence (looked up): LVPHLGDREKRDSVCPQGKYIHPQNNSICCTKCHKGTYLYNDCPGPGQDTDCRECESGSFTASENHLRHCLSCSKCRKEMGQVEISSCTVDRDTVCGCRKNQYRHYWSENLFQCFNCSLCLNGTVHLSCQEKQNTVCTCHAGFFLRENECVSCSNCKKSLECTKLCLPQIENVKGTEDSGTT

B1: TAR3h-23 (other)
VH: STEVQLLESGGGLVQPGGSLRLSCAASGFTFYDYNMSWVRQAPGKGLEWVSTITHTGGVTYYADSVKGRFTISRDNSKNTLYLQMNSLRAEDTAVYYCAKQNPSYQFDYWGQGTLVTVSSAAAEQKLISEEDLN
notes: anti-HSA VH dAb expressed from pDOM5
In the experiment with human serum albumin, B1 showed a dissociation constant Kd of 800 nM. This counts as sub-micromolar.

B2: TAR3h-26 (other)
VH: STEVQLLESGGGLVQPGGSLRLSCTASGFTFDEYNMSWVRQAPGKGLEWVSTILPHGDRTYYADSVKGRFTISRDNSKNTLYLQMNSLRAEDTAVYYCAKQDPLYRFDYWGQGTLVTVSSAAAEQKLISEEDLN
notes: as for B1
Turning to B2, in the experiment with human serum albumin, the equilibrium dissociation constant (Kd) is 200 nM.

B3: TAR3h-22 (other)
VH: STEVQLLESGGGLVQPGGSLRLSCAASGFTFSKYWMSWVRQAPGKGLEWVSSIDFMGPHTYYADSVKGRFTISRDNSKNTLYLQMNSLRAEDTAVYYCAKGRTSMLPMKGKFDYWGQGTLVTVSSAAAEQKLISEEDLN
notes: as for B1
B3: in the experiment with human serum albumin, binding was characterised by a dissociation constant (Kd) of 50 nM.

B4: TAR2h10-55 (other)
VH: STEVQLLESGGGLVQPGGSLRLSCAASGFPFEWYWMGWVRQAPGKGLEWVSAISGSGDSTYYADSVKGRFTISRDNSKNTLYQQMNSLRAEDAAVYYCAKVKLGGGPNFGYRGQGTLVTVSSAAAEQKLISEEDLN
notes: expressed from pDOM5; also called TAR2h10-55 dAb
As for B4, in the experiment with human p55 TNF receptor, the Kd fell in the range of 10 to 15 nM.
